To fix the notation:
B1: mRNA-splicing (parent)
chain: AGUUGCUGCUGGGAGCUCCAGCACAGUGAAAUGGACAGAAGGGCAGAGCAA

The record followed here is the RNAGym collection of RNA variant scans (doi:10.1101/gr.219683.116).

The variants in this data set derive from B1. Briefly: exon inclusion enrichment index; higher = more inclusion; WT1 exon 5 minigene, HEK293.
For the variant G5A C6U U7A G8A C9A, the “exon inclusion enrichment index” value was 0.0655.

Regarding G5C C6A U7C G8A U10A A39U A40C, the “exon inclusion enrichment index” value is 0.195.

Regarding G5A C6U U7A G8U C9A A37U G38A, the “exon inclusion enrichment index” value is 0.0163.

For C6A U7A C9A U10A A29U A30C, the “exon inclusion enrichment index” value came to 0.665.

Regarding C6A U7A C9A U10A A29U A30U, the “exon inclusion enrichment index” value is 0.198.

As to G5A U7C G8A U10C U17G C18U, the “exon inclusion enrichment index” value came to 1.66.

Turning to C6A U7A C9A U10A C16A U17C, the “exon inclusion enrichment index” value is 0.47.

Take G5C C6U G8C C9U U10C A39G A40G: the “exon inclusion enrichment index” value stood at 0.186.

G5C C6U G8C C9U U10C A39G A40U: the “exon inclusion enrichment index” value came out at 0.232.

Take G5A U7G G8U C9A: the “exon inclusion enrichment index” value came to 0.583.

Turning to G5U C9G, the “exon inclusion enrichment index” value was found to be 0.253.

Take G5A C6U U7A G8U C9A A23C: the “exon inclusion enrichment index” value was determined as 0.0335.

As to G5A C6G U7G C9A G26U, the “exon inclusion enrichment index” value was 0.00112.

For the variant G5C C6A U7C G8A U10A U27A, the “exon inclusion enrichment index” value came out at 0.151.

On to G2C U3A G5U G8U C9U, for which the “exon inclusion enrichment index” value was 0.19.

Consider G5U G8U C9U U17G C18G, for which the “exon inclusion enrichment index” value came out at 0.13.

Take C6A U7C C9A U10C A47C G48C: the “exon inclusion enrichment index” value was determined as 2.81.

Regarding G5C C6A U7C G8A U10A A31G U32C, the “exon inclusion enrichment index” value was 0.646.

Regarding G5C C6U G8C C9U U10C C44U, the “exon inclusion enrichment index” value is 0.527.

For G5A C6U U7A G8U C9A U17C C18A, the “exon inclusion enrichment index” value stood at 0.0363.

Regarding G5A U7C G8A U10C G15A C16A, the “exon inclusion enrichment index” value stood at 1.46.

On to C6A U7C C9A U10C G43C, for which the “exon inclusion enrichment index” value worked out at 3.07.

Regarding G5C C6U G8C C9U U10C G21A C22A, the “exon inclusion enrichment index” value was 0.718.

Consider G5U G8U C9U G28C A29C, for which the “exon inclusion enrichment index” value was found to be 0.115.

For G5C C6G U7C U10C A14U, the “exon inclusion enrichment index” value amounted to 1.05.

Consider G5C C6A U7C G8A U10A C36A A37U, for which the “exon inclusion enrichment index” value amounted to 0.0382.

For the variant G5U G8U C9U G43U C44A, the “exon inclusion enrichment index” value was 0.0152.

G11A G12C: the “exon inclusion enrichment index” value is 1.9.

Take C6A U7C C9A U10C U17C C18G: the “exon inclusion enrichment index” value came out at 3.74.

Regarding G5C C6G U7C U10C G15U C16G, the “exon inclusion enrichment index” value worked out at 4.02.

Turning to G5A C6G U7G C9A G12C G13A, the “exon inclusion enrichment index” value came out at 0.00586.

For G5A C6G U7G C9A G33A G34U, the “exon inclusion enrichment index” value stood at 0.000917.

For the variant G5A U7C G8A U10C A39G A40C, the “exon inclusion enrichment index” value was 2.53.

Take G5U G8U C9U A40G: the “exon inclusion enrichment index” value is 0.0867.

Consider G5A C6G U7G C9A A47U G48C, for which the “exon inclusion enrichment index” value was 0.000966.

For the variant G5C C6A U7C G8A U10A A37C G38A, the “exon inclusion enrichment index” value was determined as 0.149.

For G5C C6A U7C G8A U10A A14U G15A, the “exon inclusion enrichment index” value was 0.00771.

For G5C C6U G8C C9U U10C G28C A29U, the “exon inclusion enrichment index” value is 1.13.

With C6A U7C C9A U10C C44A A45G, the “exon inclusion enrichment index” value stood at 4.86.

Regarding G5C C6U G8C C9U U10C G41A G42U, the “exon inclusion enrichment index” value stood at 1.71.

With G5A U7C G8A U10C G21C C22A, the “exon inclusion enrichment index” value is 2.27.

In the case of G5U G8U C9U G26U, the “exon inclusion enrichment index” value is 0.161.

On to C6A U7C C9A U10C C36G, for which the “exon inclusion enrichment index” value was 2.75.

Consider G5A C6U U7A G8U C9A G26U, for which the “exon inclusion enrichment index” value was found to be 0.0898.

With A31U U32G, the “exon inclusion enrichment index” value was 0.056.

With A20G, the “exon inclusion enrichment index” value was 1.58.

Consider G13U A14U, for which the “exon inclusion enrichment index” value was found to be 0.0193.

As to G5A C6U U7A G8U C9A U32C G33A, the “exon inclusion enrichment index” value was 0.0199.

Take G5C C6U G8C C9U U10C A20C G21U: the “exon inclusion enrichment index” value is 0.926.

With C6A U7A C9A U10A C19G, the “exon inclusion enrichment index” value was determined as 0.576.

Turning to G5C C6G U7C U10C A20C G21A, the “exon inclusion enrichment index” value worked out at 1.97.

In the case of C6A U7C C9A U10C C36G A37C, the “exon inclusion enrichment index” value was determined as 1.56.

On to G5A C6G U7G C9A A14G G15C, for which the “exon inclusion enrichment index” value was determined as 0.00222.

Take G5A C6U U7A G8U C9A C22G A23G: the “exon inclusion enrichment index” value was found to be 0.0166.

With G5A U7C G8A U10C U27C G28C, the “exon inclusion enrichment index” value was found to be 2.7.

Take A31G U32C: the “exon inclusion enrichment index” value turned out to be 0.99.

For the variant A31G U32G, the “exon inclusion enrichment index” value was found to be 0.104.

On to G5A U7C G8A U10C G21A C22A, for which the “exon inclusion enrichment index” value is 1.09.

Take G5A C6G U7G C9A U10G G11U: the “exon inclusion enrichment index” value is 0.00152.

On to G5A C6G U7G C9A A37C G38A, for which the “exon inclusion enrichment index” value was 0.00086.

On to G5U G8U C9U U17A C18U, for which the “exon inclusion enrichment index” value was 0.0627.

For the variant G5A U7C G8A G11U, the “exon inclusion enrichment index” value is 1.23.

As to G5A C6G U7G C9A A35U C36G, the “exon inclusion enrichment index” value is 0.00119.

As for G5A C6U U7A G8U C9A A14U G15A, the “exon inclusion enrichment index” value stood at 0.0025.

With G5C C6A U7C G8A U10A G12C G13U, the “exon inclusion enrichment index” value turned out to be 0.0133.

Turning to C6A U7C C9A U10C A30U A31U, the “exon inclusion enrichment index” value amounted to 2.77.

Regarding G5A U7C G8A U10C A37G G38A, the “exon inclusion enrichment index” value is 2.19.

C6A U7A C9A U10A C18G C19A: the “exon inclusion enrichment index” value was found to be 0.924.

For G5A C6U U7A G8U C9A G15U C16U, the “exon inclusion enrichment index” value stood at 0.00626.

Regarding G5C C6G U7C U10C G11A, the “exon inclusion enrichment index” value amounted to 2.79.

For the variant G5A C6U U7A G8U C9A A25G G26C, the “exon inclusion enrichment index” value was 0.493.

Turning to G5U G8U C9U C16A, the “exon inclusion enrichment index” value is 0.141.

As to G5A U7C G8A U10C G41A G42A, the “exon inclusion enrichment index” value worked out at 1.99.

G5A C6U U7A G8U C9A G46A A47C: the “exon inclusion enrichment index” value amounted to 0.232.

For G5A C6G U7G C9A G48U, the “exon inclusion enrichment index” value was determined as 0.00708.

With G5A C6U U7A G8U C9A U10A, the “exon inclusion enrichment index” value was found to be 0.0162.

On to C36A A37U, for which the “exon inclusion enrichment index” value is 0.0531.

Turning to C6A U7C C9G U10G, the “exon inclusion enrichment index” value came out at 0.132.

On to G5A C6G U7G C9A G43U, for which the “exon inclusion enrichment index” value was 0.00185.

For the variant G5U G8U C9U G38A A39C, the “exon inclusion enrichment index” value was found to be 0.0724.

Regarding C18G C19U, the “exon inclusion enrichment index” value worked out at 0.777.

Take G5A U7C G8A U10C A30U A31U: the “exon inclusion enrichment index” value was determined as 1.86.

With G5A U7C G8A U10C C44A A45U, the “exon inclusion enrichment index” value came to 4.02.

As to G5C C6A U7C G8A U10A G43A C44U, the “exon inclusion enrichment index” value is 0.16.
